# Measured values: patent publication US7186408 (CAMBRIDGE UNIVERSITY TECHNICAL SERVICES, dated 2007)
# T1: Human CD30 on K562 cells (human, UniProt P28908 19-595)
# T1 construct: also called cell surface CD30; cellular receptors
# T1 sequence: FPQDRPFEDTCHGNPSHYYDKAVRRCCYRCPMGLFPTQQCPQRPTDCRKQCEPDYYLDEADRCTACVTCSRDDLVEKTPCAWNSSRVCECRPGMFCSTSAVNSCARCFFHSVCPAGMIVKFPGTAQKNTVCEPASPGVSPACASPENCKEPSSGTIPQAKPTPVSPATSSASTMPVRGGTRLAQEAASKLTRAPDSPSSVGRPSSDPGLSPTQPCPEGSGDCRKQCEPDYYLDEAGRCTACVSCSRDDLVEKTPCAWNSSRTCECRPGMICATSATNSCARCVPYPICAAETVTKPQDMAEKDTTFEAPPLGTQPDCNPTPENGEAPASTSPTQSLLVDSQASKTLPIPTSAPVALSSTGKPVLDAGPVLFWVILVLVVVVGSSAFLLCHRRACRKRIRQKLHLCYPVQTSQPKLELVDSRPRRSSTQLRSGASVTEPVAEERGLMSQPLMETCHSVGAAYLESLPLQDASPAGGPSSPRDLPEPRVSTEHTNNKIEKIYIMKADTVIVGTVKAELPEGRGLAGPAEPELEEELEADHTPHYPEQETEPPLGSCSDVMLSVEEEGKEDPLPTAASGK
# T2: Recombinant mouse CD30-Fc (R&D Systems) (mouse, UniProt Q60846 19-281)
# T2 construct: also called moCD30-Fc; not shown: Fc portion of the bought fusion protein
# T2 sequence: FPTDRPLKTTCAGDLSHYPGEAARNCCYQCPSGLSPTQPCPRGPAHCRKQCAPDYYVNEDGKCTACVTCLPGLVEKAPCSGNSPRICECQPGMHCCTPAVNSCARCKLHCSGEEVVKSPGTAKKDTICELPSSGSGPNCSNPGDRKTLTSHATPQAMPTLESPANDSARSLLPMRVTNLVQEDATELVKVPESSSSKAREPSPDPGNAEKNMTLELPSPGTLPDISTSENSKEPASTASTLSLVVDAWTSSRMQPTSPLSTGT
# B1: Recombinant mouse CD30L (soluble, 6x histidine-tagged, R&D Systems) (ligand, UniProt P32972 68-239, looked up)
# chain: QKKDSTPNTTEKAPLKGGNCSEDLFCTLKSTPSKKSWAYLQVSKHLNNTKLSWNEDGTIHGLIYQDGNLIVQFPGLYFIVCQLQFLVQCSNHSVDLTLQLLINSKIKKQTLVTVCESGVQSKNIYQNLSQFLLHYLQVNSTISVRVDNFQYVDTNTFPLDNVLSVFLYSSSD
# notes: also called 125I-CD30L; mouse 125I-CD30L
# How the values were obtained:
# Human CD30 on K562 cells = molecular target: T1, Human CD30 on K562 cells; assay: flow cytometry on K562 cells
# [1] = molecular target: vCD30-Fc (EV Hampstead vCD30 fused to the Fc fragment of human IgG1, baculovirus AcCD30-Fc, purified from Hi5 … (ectromelia virus, strain Hampstead; …)
# [2] = molecular target: T2, Recombinant mouse CD30-Fc (R&D Systems); assay: Scatchard analysis (LIGAND), 2 ng mouse CD30 on protein A FlashPlate with increasing mouse 125I-CD30L
binder,measurement,setting,value
B1,binding result,Human CD30 on K562 cells,binds
same,Kd,[1],1 nM
same,Kd,[2],1 nM
